Data on 16 molecules can be found in patent publication US20090258005A1 (TRUBION PHARMACEUTICALS, published 2009).

In assay [1] the target is T1, EQR (Her017P).
T1 construct: also called HER2 EQR-Fc; HER2 EQR DIMER
As to the kind of experiment: ELISA, soluble scFv on EQR. (An ELISA detects its analyte on a solid surface through an enzyme-linked reagent.)
Experimental: (§1) Various Her2-Fc proteins (e.g., Her008P, Her017P, Her018P, etc.) or a negative control murine IgG2a protein were coated overnight at 4° C. on 96-well Nunc Maxisorp at a concentration of 1 ug/ml in PBS. Alternatively, pre-blocked streptavidin-coated plates (Greiner) were coated with biotinylated Her2-Fc proteins for 1 hour at room temperature at a concentration of 1 ug/ml in block buffer (3% skim milk/1% BSA/PBS). Plates were washed three times using PBS and blocked for 1 hour at room temperature in 3% skim milk/1% BSA/PBS. Phage or peripreps were prepared as described above and were blocked for 1 hour at room temperature in an equal volume of 6% skim milk/1% BSA/PBS. Blocked plates were washed five times with PBS and 50 μl/well of blocked phage or periprep were transferred to the appropriate plates and incubated for 1 hour at room temperature. […] Plates were incubated for a further hour at room temperature and washed seven times with PBS. Signal was developed using TMB, the reaction stopped with H₂SO₄ and the absorbance read at 450 nm on an Envision plate reader (Perkin Elmer).

The target in assay [2] is T2, Full length HER2 (human, UniProt P04626 23-1255).
T2 construct: Endogenous HER2 on SKBR3, BT474, 22rv1, MDA-MB-175, MDA-MB-453 and MDA-MB-361 cells; also called HER2 on the cell surface; ErbB2
In words: cell ELISA, phage scFv, SKBR3 cells.

Assay [3] deals with T3, L1-CR1 (Her054P).
T3 construct: also called 1.0
T3 chain: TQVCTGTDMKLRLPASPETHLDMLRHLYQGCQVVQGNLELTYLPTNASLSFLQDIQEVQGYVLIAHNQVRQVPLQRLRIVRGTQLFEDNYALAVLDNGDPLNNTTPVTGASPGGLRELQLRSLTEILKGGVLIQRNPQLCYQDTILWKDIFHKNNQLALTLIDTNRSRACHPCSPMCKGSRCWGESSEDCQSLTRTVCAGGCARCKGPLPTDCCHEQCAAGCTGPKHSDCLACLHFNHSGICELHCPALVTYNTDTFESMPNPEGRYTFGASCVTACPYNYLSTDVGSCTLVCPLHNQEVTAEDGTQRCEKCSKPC
In words: ELISA, soluble scFv on L1-CR1.
Experimental: as §1

For assay [4], the target named is T4, Her018P, Her2 ECD with a deletion in the CR2 (Domain IV) region expressed with a mIgG2a Fc tail (human; murine, UniProt P04626 23-599).
T4 construct: Shares the name HER018 with the trastuzumab SMIP; also called 1.8 (Dimer); dimeric HER018; not shown: murine IgG2a Fc tail (C-terminal dimerising carrier) and any junction residues
In words: ELISA, soluble scFv on Her018.

The target in assay [5] is T5, ECD region of Her2 (human, UniProt P04626 23-652).
T5 construct: extracellular domain; Generic target of the scFv screen; also called extracellular domain (ECD) of Her2 (ErbB2)
As to the kind of experiment: screening after three rounds of phage selection, soluble periplasmic scFv.

Assay [6] concerns the target T6, Her008P, full-length extracellular domain (ECD) of Her2 expressed with a mIgG2a Fc tail (human; murine, UniProt P04626 23-652).
T6 construct: also called SIIS; SIIS (Dimer); not shown: murine IgG2a Fc tail
As to the kind of experiment: ELISA, soluble scFv on ECD.

B1: S1R2A_CS_1D3 (scFv, V domains shown)
VH: EVQLVQSGAEVKKPGASVKVSCKASGYSFTAFYIHWVRQAPGQGLEYLGWIDPNTGATKYAQRFQGRVIMTWDTSITTATMELSRLTSDDSAVYYCVRDLREWGYELSVEYWGRGTLVTVSS
VL: not shown
notes: scFv, on phage in the screen
Turning to B1, the binding result in assay [1] is on record as “no binding”; in assay [2] it was “binds”; in assay [3], “no binding”; in assay [4] it was “no binding”.

B2: S1R3C1_CS_1A6 (scFv, V domains shown)
VH: EVQLVQSGAEVKKPGESLKISCKGFGYNFRSAWIGWVRQMPGKGLEWMGVIYPGDSDVRYSPSFQGQVTISADKSISTAYLQWSSLKASDTAMYYCTRPVGQWVDSDYWGKGTLVTVSS
VL: QSVLTQPPSASGTPGQRVTISCSGSSSNIGTNTVNWYQQLPGTAPKLLIYTSNQRPSGVPARFSASNSGTSASLAISGLRSEDEADYYCAAWDDKLSGAVFGGGTKLTVL
notes: scFv, on phage in the screen; also called Her2_S1R3C1_CS_1A6
Consider B2, for which the binding result is reported as “binds” in assay [2] and “no binding” in assay [3].

B3: S1R3A1_CS_1B10 (scFv, V domains shown)
VH: EVQLVQSGAEVKKPGASVRVSCKGSGNTFTGHYIHWVRQAPGQGLEWLGWIDPNTGDIQYSENFKGSVTLTRDPSINSVFMDLIRLTSDDTAMYYCAREGAGLANYYYYGLDVWGRGTMVTVSS
VL: QTVVLQEPSFSVSPGGTVTLTCGLNFGSVSTAYYPSWYQQTPGQAPRTLIYGTNIRSSGVPDRFSGSIVGNKAALTITGAQTEDESDYYCALYMGSGMLFGGGTKVTVL
notes: scFv, soluble from bacterial periplasm in the screen; also called Her2_S1R3A1_CS_1B10
With B3, the binding result in assay [1], in assay [5], in assay [6] and in assay [4] was “binds” in each case.

B4: S1R3A1_BMV_1F3 (scFv, V domains shown)
VH: EVQLVESGEGLVKPGGSLRLSCTASGFTFRSYSLNWVRQAPGQGLEWVSSISSTSTYIYYADSVKGRFTISRDDAKNTLYLQMNSLRAEDTAAYYCVRLGSGGGYFPDYWGRGTLVTVSS
VL: SSELTQDPAVSVALGQTVRITCQGDSLRSYYASWYQQKPGQAPVLVIYGKNNRPSGIPDRFSGSSSGNTASLTITGAQAEDEADYYCNSRDSSGNHVVFGGGTKLTVL
notes: scFv, soluble from bacterial periplasm in the screen; also called Her2_S1R3A1_BMV_1F3
As for B4, the binding result in assay [1] is “binds”; in assay [3] it was “no binding”; in assay [5] it was “binds”; in assay [6], “binds”; in assay [4] it was “binds”.

B5: S1R3B1_BMV_1H5 (scFv, V domains shown)
VH: QVQLQESGGGVVQPGGSLRLSCAASGFTFSGYGMHWVRQAPGKGLEWVASVRNDGSNTYYTDSVKDRFTISRDNTKNTLYLQMNSLRAEDTAVYYCAKSRRVMYGTSYYFDYWGRGTLVTVSS
VL: SSELTQDPAVSVALGQTVRITCQGDSLRSYYASWYQQKPGQAPVLVIYGKNNRPSGIPDRFSGSSSGNTASLTITGAQAEDEADYYCNSRDSSGNHVVFGGGTKLTVL
notes: scFv, soluble from bacterial periplasm in the screen; also called Her2_S1R3B1_BMV_1H5
With B5, the binding result in assay [1] is “no binding”; in assay [3], “no binding”; in assay [5], “binds”; in assay [6], “binds”; in assay [4] it was “no binding”.

B6: S1R3B2_DP47_1C9 (scFv, V domains shown)
VH: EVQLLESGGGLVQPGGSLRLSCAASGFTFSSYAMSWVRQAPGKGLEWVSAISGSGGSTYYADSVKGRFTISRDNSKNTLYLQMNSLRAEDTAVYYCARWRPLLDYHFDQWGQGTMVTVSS
VL: QSVLTQPPSASGTPGQTVTISCSGSSSNIGSSVVNWYQQFPGTAPKVLVYSNTQRPSGVPDRFSGSRSGTSASLAISGLQSEDEADYYCLAWDASLNGWVFGGGTKLTVL
notes: scFv, on phage in the screen; also called Her2_S1R3B2_DP47_1C9
On to B6, for which the results for the binding result in assay [2], in assay [3] and in assay [4] were “binds”, “no binding” and “no binding”, respectively.

B7: S1R3A1_DP47_1A6 (scFv, V domains shown)
VH: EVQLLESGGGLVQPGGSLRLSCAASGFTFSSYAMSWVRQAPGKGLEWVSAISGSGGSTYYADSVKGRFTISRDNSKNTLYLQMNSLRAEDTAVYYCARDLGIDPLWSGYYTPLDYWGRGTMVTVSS
VL: HVILTQPPSASGTPGQRVTISCSGSSSNIGSNSVSWYQQLPGTAPKLLMYTNNQRPSGVPDRFSGSKSGTSASLAISGLQSEDEADYYCATWDASLNTWVFGGGTKVTVL
notes: scFv, soluble from bacterial periplasm in the screen; also called Her2_S1R3A1_DP47_1A6
As for B7, the binding result is on record as “binds” in assay [1]; “no binding” in assay [3]; “binds” in assay [5]; “binds” in assay [6]; “binds” in assay [4].

B8: S1R3B2_BMV_1H5 (scFv, V domains shown)
VH: EVQLVQSGGGLVRPGGSLRLSCAASGFSFSDYYMTWIRQIPGKGLEWVAVIWNDGSDRYYADSVKGRFTISRDNSKNTLFLQMSSLRDEDTALYYCVRGGPTASSGFDYWGRGTLVTVSS
VL: SSELTQPASVSGSPGQSITISCTGTSSDVGGYNYVSWYLQHPGKAPKLMIYEGSKRPSGVSNRFSGSKSGNTASLTISGLQAEDEADYYCSSYTTRSTRVFGGGTKLTVL
notes: scFv, on phage in the screen; also called Her2_S1R3B2_BMV_1H5
Turning to B8, the binding result in assay [2] was “binds”; in assay [3] it was “no binding”.

B9: S1R3B1_BMV_1G11 (scFv, V domains shown)
VH: QVQLVQSGGGLVQPGGSLRLSCAASGFTFSTYAMSWARQAPGKGLEWVSSISGDGGRILDADSAKGRFTISRDNSKNTLYLQMNGLRVEDTALYYCARADGNYWGRGTMVTVSS
VL: QSVLTQPASVSGSPGQSITISCTGTSSDVGGYNYVSWYQQHPGKAPKLMIYEGSKRPSGVSNRFSGSKSGNTASLTISGLQAEDEADYYCSSYTTRSTRVFGGGTKLTVL
notes: scFv, soluble from bacterial periplasm in the screen; also called Her2_S1R3B1_BMV_1G11
As for B9, the binding result in assay [1] was “no binding”; in assay [3] it was “no binding”; in assay [5], “binds”; in assay [6], “binds”; in assay [4] it was “no binding”.

B10: S1R3B1_BMV_1A1 (scFv, V domains shown)
VH: EVQLVQSGAEVKEPGASVKVSCKASGYDFSNYGFSWVRQAPGQGLEWMGWISSYNGYTNYAQRLQGRVTMTTDTSTSTAYMELRSLRSDDTAVYYCARDRGLGNWYFDLWGQGTLVTVSS
VL: QSVLTQPASVSGSPGQSITISCTGTSSDVGGYNYVSWYQQHPGKAPKLMIYEGSKRPSGVSNRFSGSKSGNTASLTISGLQAEDEADYYCSSYTTRSTRVFGGGTKLTVL
notes: scFv, soluble from bacterial periplasm in the screen; also called Her2_S1R3B1_BMV_1A1
For B10, the binding result in assay [1] is listed as “binds”; in assay [3], “no binding”; in assay [5] it was “binds”; in assay [6], “binds”; in assay [4], “no binding”.

B11: S1R2C_CS_1H12 (scFv, V domains shown)
VH: EVQLVETGGGLVQPGGSLRLSCAASGFTFSSYGMNWVRQAPGKGLEWVSYISSSGNTIFYADSVKGRFTISRDSAKNSVSLQMNSLRDEDTAVYYCASYYSYYYGMDAWGQGTMVTVSS
VL: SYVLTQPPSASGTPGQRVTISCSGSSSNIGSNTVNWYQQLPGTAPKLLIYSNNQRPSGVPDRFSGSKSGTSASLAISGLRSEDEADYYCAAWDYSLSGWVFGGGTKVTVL
notes: scFv, on phage in the screen
Take B11: the binding result in assay [1] is recorded as “no binding”; in assay [2], “binds”; in assay [3], “no binding”; in assay [4], “no binding”.

B12: S1R3B2_DP47_1E8 (scFv, V domains shown)
VH: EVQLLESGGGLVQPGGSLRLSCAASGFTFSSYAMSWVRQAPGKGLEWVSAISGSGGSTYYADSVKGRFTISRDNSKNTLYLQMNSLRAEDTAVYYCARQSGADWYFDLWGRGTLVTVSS
VL: QAVLTQPSAVSGAPGQRVTISCTGTSSNIGTNYLVHWYQQRPGTAPQLLVSGNNTRPSGVTDRFSVSKSATSASLAITGLQAEDEADYYCQTYDINLRVWVFGGGTKVTVL
notes: scFv, on phage in the screen; also called Her2_S1R3B2_DP47_1E8
For the molecule B12, the binding result was “binds” in assay [2], “no binding” in assay [3] and “no binding” in assay [4].

B13: S1R3B2_DP47_1E10 (scFv, V domains shown)
VH: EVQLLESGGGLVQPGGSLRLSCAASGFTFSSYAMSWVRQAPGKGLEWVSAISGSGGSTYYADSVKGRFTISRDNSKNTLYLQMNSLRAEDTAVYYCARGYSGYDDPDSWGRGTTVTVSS
VL: HVILTQPPSTSGTPGQTVTISCSGSSSNIGSHYVYWYQQLPGTAPKLLIYRNNQRPSGVPDRFSGSKSGTSASLAISGLRSEDETDYYCAAWDDSLSGRVFGTGTKLTVL
notes: scFv, on phage in the screen; also called Her2_S1R3B2_DP47_1E10
For B13, the binding result is “no binding” in assay [1], “binds” in assay [2], “no binding” in assay [3] and “no binding” in assay [4].

B14: S1R3A1_CS_1B9 (scFv, V domains shown)
VH: KVQLVQSGTEVKKPGESLKISCQGSGYRFSSDWIAWVRQMPGKGLEWMGIVYPGDSDTRYSPSFQGQVTISADKSISTAYLQWSGLKASDTAKYYCARVQQAVGAKGYAMDVWGKGTLVTVSS
VL: QTVVIQEPSFSVSPGGTVTLTCGLSSGSVSTSYYPSWYRQTPGQAPHTLIHNTKIRSSGVPDRFSGSILGNNAALTITGAQADDESDYYCLLYMGSGIYVFGGGTKLTVL
notes: scFv, soluble from bacterial periplasm in the screen; also called Her2_S1R3A1_CS_1B9
On to B14, for which the binding result in assay [1], in assay [5], in assay [6] and in assay [4] was “binds” throughout.

B15: S1R2A_CS_1F7 (scFv, V domains shown)
VH: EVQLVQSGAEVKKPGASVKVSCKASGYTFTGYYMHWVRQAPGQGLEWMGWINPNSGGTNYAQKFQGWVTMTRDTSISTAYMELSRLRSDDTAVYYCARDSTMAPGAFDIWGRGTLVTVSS
VL: QSVLTQPPSVSVAPGQTARMTCGGNNIESKTVHWYQQKPGQAPVLVVYNDNVRPSGIPARFSGSNSGNTATLTINRVEAGDEADYYCQVWDSSRDQGVFGGGTKLTVL
notes: scFv, on phage in the screen
Regarding B15, the binding result is “binds” in assay [2] and “no binding” in assay [3].

B16: S1R3B2_BMV_1E1 (scFv, V domains shown)
VH: EVQLVETGGGVVQPGGSLSLSCAASGFTFSSYGMQWVRQAPGKGLEWVAFIRYDGSSEYYADSVKGRFTISRDNSKNTLYLQMNSLRAEDTAVYYCGRTLESSLWGKGTLVTVSS
VL: QSVLTQPPSVSAAPGQKVTISCSGSTSNIGNNYVSWYQQHPGKAPKLMIYDVSKRPSGVPDRFSGSKSGNSASLDISGLQSEDEADYYCAAWDDSLSEFLFGTRTKLTVL
notes: scFv, on phage in the screen; also called Her2_S1R3B2_BMV_1E1
As for B16, the binding result in assay [1] is listed as “no binding”; in assay [2], “binds”; in assay [3], “no binding”; in assay [4], “no binding”.
